{
  "source": "patent US5385834",
  "about": "“Mutant T7 RNA polymerase GP1(lys222) exhibiting altered promoter recognition” (Georgia Tech Research Corporation)",
  "key": {"[1]": {"target": "T7 RNA polymerase mutant GP1(lys222) (Bacteriophage T7, UniProt P00573 SEQ:1-883, E222K)", "test": "EMSA; +/-5e3; 20-fold below wild-type; more easily disrupted by lambda DNA; 25 C", "settings": "label: 32P", "procedure": "(§1) FIG. 8: Binding of a T7 Promoter by Wild-type T7 RNA Polymerase and GP1(lys222). […] Lane 1-no RNA polymerase, 5 µM promoter; Lane 2-26.5 nM GP1(lys222), 5 µM promoter; Lane 3-132.7 nM GP1(lys222), 5 µM promoter; Lane 4-26.5 nM GP1(lys222), 5 µM promoter, 3 µg lambda DNA; Lane 5-132.7 nM GP1(lys222), 5 µM promoter, 3 µg lambda DNA; Lane 6-12.9 nM T7 RNA polymerase, 5 µM promoter, Lane 7-64.7 nM T7 RNA polymerase, 5 µM promoter; Lane 8-12.9 nM T7 RNA polymerase, 5 µM promoter, 3 µg lambda DNA; Lane 9-64.7 nM T7 RNA polymerase, 5 µM promoter, 3 µg lambda DNA. Complex=Position of the enzyme/promoter complexes. Promoter=Position of the unbound promoter oligo.\n(§2) 12. Estimation of Promoter Binding. The ability of T7 RNA polymerase and GP1(lys222) to bind a T7 promoter was determined by a gel-retardation method [Muller, D. K., et al., *Biochemistry*, 27: 5763-5771 (1988)]. […] The promoter/polymerase complexes were then cut out of the gel, and the amount of promoter contained in the complexes was measured by liquid scintillation."}, "[2]": {"target": "T7 RNA polymerase (wild-type) (Bacteriophage T7, UniProt P00573 SEQ:1-883)", "test": "EMSA; +/-2.2e5; 10 mM K phosphate pH 7.8, 1 mM EDTA, 20 mM NaCl, 25 C", "settings": "label: 32P", "procedure": "as §1, §2"}},
  "data": [
    {"binder": "24 bp T7 promoter oligonucleotide (dsDNA) DNA 1: ATTAATACGACTCACTATAGGACT DNA 2: AGTCCTATAGTGAGTCGTATTAAT", "values": [
      {"measurement": "Ka", "setting": "[1]", "value": 14000, "unit": "M⁻¹"},
      {"measurement": "Ka", "setting": "[2]", "value": 280000, "unit": "M⁻¹"}
    ]}
  ]
}
